From the RNAGym collection of RNA variant scans (doi:10.1073/pnas.2313332121)

B1: TPR t1 (parent)
chain: GACCAAUCUGCCCUCAGAGCUCGAGAACAUCUUCGGAUGCAGAGGAGGCAGGCUUCGGUGGCGCGAUAGCGCCAACGUCCUCAACCUCCAAUGCAUCCCACCACAUGAUGAUGCCUGAAGAGCCUUGGUUUUUUG

Variants of: B1
Test: polymerase ribozyme fitness, log enrichment relative to wild type (log ratio); higher = more active; in vitro selection for triplet polymerase activity
In short: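 Frozen incubation at −7 °C formed the core of a single, triplicate in vitro selection round applied to PCR-built, transcribed mutant libraries of each subunit of a heterodimeric triplet polymerase ribozyme. Extended constructs were gel-excised, captured with streptavidin beads and amplified by RT-PCR, and input and output libraries were Illumina-sequenced with a filter of ≥10 input reads and ≥1 read per output. Fitness is the logarithm of genotype enrichment relative to wild-type enrichment, with inverse-variance-weighted replicate averaging, and the logarithm is base 2.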

Variant	polymerase ribozyme fitness (log ratio)
A46U C62G C88A C124A	-4.36
G45A A103U	-7.16
G47A C82G C123G U125A	-1.38
G44U G120U U130G	-1.7
G45C C79A A121G	-0.868
G47A C53U A118U	-0.687
G47A C86A A90G G117U G120C	-0.329
G45U G93C	-0.927
A46U C99U	-4.49
G44U A121U	0.755
G45C U55C A119U	-2.39
G45C G69A G117U	-6.59
G47A A75G U96C	-0.307
G45C C72A	-0.797
G45U G110U	-2.75
G45A A118G	-1.02
G45U C56U G122U U129C	-1.59
G45U C89U U92A U106A U133G	-3.32
A46U G52U C123A	-3.01
G44U U59G	-0.461
A46U C89U A111U	-5.27

Variant	polymerase ribozyme fitness (log ratio)
A46C C49U A83U	-4.1
A46U C56A	-1.15
A46C C115G G117A	-4.09
G44U U59G G120A	0.601
G47A C79U	-1.59
G45A G52A C89U U92A G120U	-3.99
G47A C76G A90G	-0.228
G45A C80A C115A	-3.93
A46U C56U C114A	-2.28
A46G C124U	0.675
G47A C49A U132A	-1.53
G44U G58C C62A	-2.17
G44U U54C C64U C102U G113A G128U	-6.53
G44U U96A U116G	-3.66
G47A A50G C115A	-1.8
A46C C56G C72G U87A A100U	-1.12
G45C C89U	-1.92
G45A U81G	-3.71
A46U C64U A90U U96A U106A U131A	-3.76
G44U C53G G61C U81G C102U U132A	-3.53
G47A A91C G117U U133G	-4.6

Variant	polymerase ribozyme fitness (log ratio)
G44U C56G U92A C115A	-4.27
G44U G128U	-3.49
G45C G47A	-3.52
G44U U54G C76A	-1.81
G45U G61C	-2.72
G45U G61A	-2.11
G45C A46C A105C	-5.01
G47A C114A C123G U125A	-2.46
A46U C70G C85U C104G	-7.09
A46C U87A A91C U96A	-2.01
A46C C53A G77U	-0.585
A46U A111C C124G U131A U132C	-0.582
G44U G63C U78A	-0.651
A46C C86U A95G C114G	-3.71
G45U C64U	-0.713
A46U C94G C98U	-4.76
A46G G113U	-2.95
A46U U59C G93A U130C	-2.04
A46U C70G	-4.75
A46U A66C C123G C124A	0.0849
A46U U55A G69A U125A	-4.29

Variant	polymerase ribozyme fitness (log ratio)
G47A C101U G122A	-1.99
G45U C64U G77U C79U C114G	-4.61
A46G C72G C85G	-4.41
A46G A90G C101U U106A	-0.372
G45C G69U C82A G127A	-3.34
G47A G48C A100U U112A	-0.897
G44U G69A C76A G120C	-6.09
A46U A66G G77A	-1.99
G45A G48A C86A C89U	-2.36
G45U U106A U129C	-1.68
A46G U78A U112G	0.172
G45U A46C G127C	-2.82
G47A G60U C101A	-0.894
G45U U78G C88U	-1.1
G45A G120C	0.183
G47A G52A G120A	-0.716
G45C U92A	-3.97
A46C C56G C70A	-5.02
A46U G117A U133G	-2.73
G45U C104U C124A	-1.14
